Data from patent US20210113484A1 (NATIONAL UNIVERSITY OF SINGAPORE, published 2021).
Where a chain is given by its changes, count along the chain named. Names and notes keep the numbering of the source.

Legend:
[1] = test system: h6NE-GFPuvTEV (h6NE-GFPuv fusion with a TEV protease site between the AfFtn subunit and GFPuv) [GFP: P42212]
[2] = biological target: T1, AfFtn with truncated C-terminus and E65K, E128K, E131K, D138A, net positive interior [AfFtnΔC(+)] (Archaeoglobus fulgidus); test: gel densitometry of purified protein fractions
T1 construct: 24 copies in the empty shell; about 23 copies where it surrounds one fusion subunit; also called tES(+)
T1 chain: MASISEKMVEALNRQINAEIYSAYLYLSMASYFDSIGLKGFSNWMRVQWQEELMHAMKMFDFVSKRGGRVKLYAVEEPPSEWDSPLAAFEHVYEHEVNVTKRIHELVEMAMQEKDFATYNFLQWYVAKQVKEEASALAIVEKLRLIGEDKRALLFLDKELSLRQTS

[3] = biological target: T2, native rLuc (un-fused Renilla luciferase) (Renilla reniformis, UniProt P27652 1-311); test: cell-free encapsulation by pH shift 5.8 to 8; rLuc luminescence
T2 sequence (looked up): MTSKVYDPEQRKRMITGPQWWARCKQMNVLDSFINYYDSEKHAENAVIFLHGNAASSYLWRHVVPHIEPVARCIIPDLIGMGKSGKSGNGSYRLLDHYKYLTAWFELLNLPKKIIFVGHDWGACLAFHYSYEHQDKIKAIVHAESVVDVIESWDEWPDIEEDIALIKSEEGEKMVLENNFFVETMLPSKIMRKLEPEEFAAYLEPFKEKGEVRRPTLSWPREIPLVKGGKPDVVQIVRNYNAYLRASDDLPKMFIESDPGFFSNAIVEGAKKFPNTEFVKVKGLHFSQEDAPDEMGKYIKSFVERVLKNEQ
Description: The TMB substrate was added for color development and the reaction stopped using 2M H₂SO₄ after 5 mins. Absorbance was recorded at 450 nm. All luciferase reactions took place at ambient temperature (24-27° C.) in a 96-well plate with white interior and were performed at least in triplicates. Following chromatographic purification, equimolar concentrations (500 nM) of purified h6NE-luciferase(+), h6NEluciferase(−), and h6NE-luciferase(+/−) were evaluated for luciferase activity using D-luciferin potassium salt as a substrate. The reaction was initiated by injecting 50μl buffer containing D-luciferin potassium salt (final concentration 200 μM), 50 mM Tris-Cl pH 7.5, 10 mM MgCl₂, 2 mM EDTA, 100 μM ATP, 0.1% BSA, to a 50μl protein sample. Purified tES(+)F116H/tES-rLuc, tES-rLuc, and rLuc were evaluated using Renilla luciferase kit (Promega) with some modifications in the manufacturer's instructions. […] The signal was integrated for 1 min with a 2 s delay and luminescence was measured in Relative Light Units (RLU). […] The steady-state initial velocities, VO, (RLU/sec) for h6NE-luciferase(+/−) and recombinant luciferase were determined by initiating the reaction with different concentration of D-luciferin potassium salt. […] All readings were recorded on a Perkin Elmer Plate reader. […]

native GFPuv (un-fused) [4] = biological target: T3, native GFPuv (un-fused) (UniProt P42212 1-238 = GFP); test: cell-free encapsulation by pH shift 5.8 to 8; GFPuv fluorescence and thermal shift
T3 construct: Any tag on the un-fused protein is not described
Description: (§1) FIGS. 18A-18D show effect of different molar ratios and charge of tES subunits on native GFPuv encapsulation in vitro. […] With increasing amount of GFPuv, denaturation temperature of tES(+)F116H increases. […] Negligible change in the denaturation temperature for 60:10 tES(−)F116H:GFPuv indicates unsuccessful encapsulation of GFPuv within tES(−)F116H as compared to tES(+)F116H. In 18A+ve control is tES:tES-GFPuv (0.5 μM); −ve control is GFPuv. In 18B+ve controls are tES(+)F116H:tES-GFPuv and tES(−)F116H:tES-GFPuv.
(§2) GFP, and HRPC and rLuc activities were determined through fluorescence, colorimetric and luminescence assays, respectively, both from cell lysate and purified proteins. For GFP, fluorescence of tES(+)F116H/tES-GFPuv, tES-GFPuv, and GFPuv was read at 508 nm in a 96-well black polystyrene plate (Fisher Scientific) with excitation wavelength fixed at 395 nm was performed or fluorescence read at 508 nm in a 96-well black polystyrene plate (Fisher Scientific) using supernatant from 10-mg bacterial pellet (induced at 0.8 OD and cultured for 24h). […] Absorbance was recorded at 450 nm. […] Following chromatographic purification, equimolar concentrations (500 nM) of purified h6NE-luciferase(+), h6NEluciferase(−), and h6NE-luciferase(+/−) were evaluated for luciferase activity using D-luciferin potassium salt as a substrate.

[5] = biological target: T4, native HRPC (un-fused horseradish peroxidase isoenzyme C) (horseradish, UniProt P00433 31-338); test: cell-free encapsulation by pH shift 5.8 to 8; HRPC activity and thermal shift
T4 sequence (looked up): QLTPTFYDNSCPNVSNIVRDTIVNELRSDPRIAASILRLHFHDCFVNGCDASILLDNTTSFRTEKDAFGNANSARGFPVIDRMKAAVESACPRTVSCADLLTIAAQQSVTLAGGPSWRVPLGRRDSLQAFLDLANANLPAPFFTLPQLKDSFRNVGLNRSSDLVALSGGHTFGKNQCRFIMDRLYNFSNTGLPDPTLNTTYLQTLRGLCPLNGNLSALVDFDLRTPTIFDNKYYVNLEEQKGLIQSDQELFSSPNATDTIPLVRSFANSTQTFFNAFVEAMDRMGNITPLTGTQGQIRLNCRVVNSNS
Description: (§3) With increasing amount of HRPC, denaturation temperature of tES(+)F116H increases. […] Negligible change in the denaturation temperature for 60:10 tES(−)F116H:HRPC indicates unsuccessful encapsulation of HRPC within tES(−)F116H as compared to tES(+)F116H.
as §2, with “24h). The activity of tES(+)F116H/tES-HRPC, tES-HRPC, and HRPC was assayed using TMB substrate in a 96-well crystal-clear polystyrene plate (Greiner Bio-One). Briefly, fractions were incubated in assay buffer containing 25 mM Tris-HCl pH-8.0, 5 mM CaCl₂, 2.5 μM hemin for 5 mins.” for “24h).”

[6] = biological target: T4, native HRPC (un-fused horseradish …); test: cell-free encapsulation by pH shift 5.8 to 8; SEC fractions' HRPC activity and thermal shift assay
Description: as §3
as §2, with “24h). The activity of tES(+)F116H/tES-HRPC, tES-HRPC, and HRPC was assayed using TMB substrate in a 96-well crystal-clear polystyrene plate (Greiner Bio-One). Briefly, fractions were incubated in assay buffer containing 25 mM Tris-HCl pH-8.0, 5 mM CaCl₂, 2.5 μM hemin for 5 mins.” for “24h).”

native GFPuv (un-fused) [7] = biological target: T3, native GFPuv (un-fused); test: cell-free encapsulation by pH shift 5.8 to 8; thermal shift assay
Description: as §1
Inclusion body purification protocol is same as herein described. […] Fractions around the eluted peak were collected and their activity analyzed to identify fractions containing the POI.

## TEVprotease (Sigma)
[1]
  TEV protease cleavage, Western blot: the protease cleaved h6NE-GFPuvTEV

B1: h6NE-HRPC (His-tagged AfFtn subunit with truncated C-terminus fused to horseradish peroxidase isoenzyme C, C-terminal c-Myc epitope) (other)
chain: MASISEKMVEALNRQINAEIYSAYLYLSMASYFDSIGLKGFSNWMRVQWQEELMHAMKMFDFVSERGGRVKLYAVEEPPSEWDSPLAAFEHVYEHEVNVTKRIHELVEMAMQEKDFATYNFLQWYVAEQVEEEASALDIVEKLRLIGEDKRALLFLDKELSLRQTSQLTPTFYDNSCPNVSNIVRDTIVNELRSDPRIAASILRLHFHDCFVNGCDASILLDNTTSFRTEKDAFGNANSARGFPVIDRMKAAVESACPRTVSCADLLTIAAQQSVTLAGGPSWRVPLGRRDSLQAFLDLANANLPAPFFTLPQLKDSFRNVGLNRSSDLVALSGGHTFGKNQCRFIMDRLYNFSNTGLPDPTLNTTYLQTLRGLCPLNGNLSALVDFDLRTPTIFDNKYYVNLEEQKGLIQSDQELFSSPNATDTIPLVRSFANSTQTFFNAFVEAMDRMGNITPLTGTQGQIRLNCRVVNSNS
notes: also called tES-HRPC; tES-HRP; not shown: N-terminal His-tag from pBAD/HisB
[2]
  ratio of fusion subunit to encapsulating tES subunits: 19 tES subunits per fusion subunit

B2: tES-rLuc (His-tagged AfFtn subunit with truncated C-terminus fused to Renilla luciferase) (other)
chain: T1 chain with K65E, K128E, K131E, A138D
notes: also called tES-rLuc fusion subunit; not shown: N-terminal His-tag from pBAD/HisB; Renilla luciferase (rLuc), a 36 kDa protein from sea pansy, Renilla reniformis
[2]
  ratio of fusion subunit to encapsulating tES subunits: 20 tES subunits per fusion subunit

B3: tES(+)F116H (other)
chain: T1 chain with F116H
notes: also called F116HAfFtnΔC(+); AfFtn net positive variant subunit with truncation of unstructured C-terminus and F116H mutation
[3]
  binding result: binds
Native GFPuv (un-fused) [4]
  binding result: binds
[5]
  binding result: binds

B4: tES(-)F116H (other)
chain: T1 chain with K65E, F116H, K128E, K131E, A138D
notes: also called AfFtn subunit with truncation of unstructured C-terminus and F116H mutation
[6]
  binding result: no binding (tested: molar ratios of 60:8 and 60:10)
Native GFPuv (un-fused) [7]
  binding result: no binding (tested: 60:10 molar ratio)
